# Test system: Escherichia coli TOP10
# Test: shrunken log2 fold change of peptide-encoding DNA abundance (4.5 h post-induction vs induction); higher = less antimicrobial activity (less host growth inhibition)
# Settings: time post-induction: 4.5 h; library: site-saturation at positions 5, 18, 19, 20
# 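Note: peptides expressed intracellularly from a pBAD plasmid library in pooled LB shake-flask culture, induced with 0.3% L-arabinose, DNA abundance read by NGS, three biological replicates, DESeq2 with apeglm shrinkage.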
row,Sequence,shrunken log2 fold change
1,RRIRYRPPRLPRPRPRPFYWPRP,-1.7
2,RRIRHRPPRLPRPRPRPARAPRP,0.345
3,RRIRPRPPRLPRPRPRPDTRPRP,0.0199
4,RRIRIRPPRLPRPRPRPLRCPRP,-0.14
5,RRIRSRPPRLPRPRPRPEPIPRP,0.312
6,RRIRKRPPRLPRPRPRPPMKPRP,0.135
7,RRIRRRPPRLPRPRPRPIGTPRP,0.00964
8,RRIRCRPPRLPRPRPRPNTHPRP,-0.499
9,RRIRKRPPRLPRPRPRPYIVPRP,-0.404
10,RRIRLRPPRLPRPRPRPNWLPRP,0.0723
11,RRIRVRPPRLPRPRPRPVGRPRP,0.542
12,RRIRNRPPRLPRPRPRPKKHPRP,-0.315
13,RRIRNRPPRLPRPRPRPHTPPRP,-0.317
14,RRIRNRPPRLPRPRPRPPHWPRP,0.406
15,RRIRRRPPRLPRPRPRPCMSPRP,-0.00622
16,RRIRTRPPRLPRPRPRPREWPRP,0.259
17,RRIRTRPPRLPRPRPRPNYLPRP,-0.66
18,RRIRLRPPRLPRPRPRPGKIPRP,-0.125
19,RRIRHRPPRLPRPRPRPTFMPRP,-0.102
20,RRIRPRPPRLPRPRPRPKKGPRP,-0.0676
21,RRIRGRPPRLPRPRPRPGFPPRP,0.691
22,RRIRYRPPRLPRPRPRPAHPPRP,-0.0595
23,RRIRKRPPRLPRPRPRPFVRPRP,0.00981
24,RRIRNRPPRLPRPRPRPGVPPRP,0.457
25,RRIRMRPPRLPRPRPRPPLLPRP,0.515

row,Sequence,shrunken log2 fold change
1,RRIRLRPPRLPRPRPRPQDQPRP,0.14
2,RRIRCRPPRLPRPRPRPIGYPRP,-0.00724
3,RRIRGRPPRLPRPRPRPGWMPRP,0.315
4,RRIRPRPPRLPRPRPRPNYAPRP,-0.0849
5,RRIRDRPPRLPRPRPRPAWYPRP,-0.0946
6,RRIRMRPPRLPRPRPRPRMAPRP,1.38
7,RRIRGRPPRLPRPRPRPSTYPRP,-0.189
8,RRIRNRPPRLPRPRPRPSSMPRP,-0.458
9,RRIRRRPPRLPRPRPRPLNEPRP,0.162
10,RRIRFRPPRLPRPRPRPQDSPRP,-0.113
11,RRIRRRPPRLPRPRPRPWTTPRP,0.201
12,RRIRERPPRLPRPRPRPYDKPRP,-1.41
13,RRIRLRPPRLPRPRPRPCPSPRP,-0.00306
14,RRIRRRPPRLPRPRPRPFKRPRP,-2.89e-05
15,RRIRHRPPRLPRPRPRPAQEPRP,0.381
16,RRIRIRPPRLPRPRPRPQAKPRP,0.2
17,RRIRCRPPRLPRPRPRPNAYPRP,-0.502
18,RRIRKRPPRLPRPRPRPVHAPRP,0.464
19,RRIRIRPPRLPRPRPRPLARPRP,0.346
20,RRIRCRPPRLPRPRPRPMFRPRP,-0.179
21,RRIRPRPPRLPRPRPRPGEPPRP,0.0896
22,RRIRFRPPRLPRPRPRPKWNPRP,-0.217
23,RRIRNRPPRLPRPRPRPMNKPRP,0.0642
24,RRIRIRPPRLPRPRPRPGFTPRP,-0.329
25,RRIRNRPPRLPRPRPRPNACPRP,-0.0239

row,Sequence,shrunken log2 fold change
1,RRIRRRPPRLPRPRPRPWHIPRP,-0.246
2,RRIRERPPRLPRPRPRPPPWPRP,0.318
3,RRIRTRPPRLPRPRPRPCCDPRP,-0.151
4,RRIRTRPPRLPRPRPRPRKPPRP,0.225
5,RRIRYRPPRLPRPRPRPTEIPRP,-0.41
6,RRIRTRPPRLPRPRPRPYFPPRP,-0.995
7,RRIRTRPPRLPRPRPRPGDCPRP,-0.195
8,RRIRLRPPRLPRPRPRPYDHPRP,-0.165
9,RRIRKRPPRLPRPRPRPSPHPRP,-0.0333
10,RRIRRRPPRLPRPRPRPNSAPRP,0.282
11,RRIRERPPRLPRPRPRPPFLPRP,-0.075
12,RRIRNRPPRLPRPRPRPKPPPRP,0.436
13,RRIRERPPRLPRPRPRPERAPRP,-0.024
14,RRIRWRPPRLPRPRPRPKPIPRP,0.477
15,RRIRERPPRLPRPRPRPLMTPRP,-0.295
16,RRIRARPPRLPRPRPRPYAAPRP,0.375
17,RRIRRRPPRLPRPRPRPLVAPRP,0.755
18,RRIRQRPPRLPRPRPRPMAFPRP,-0.0854
19,RRIRYRPPRLPRPRPRPYFDPRP,-0.27
20,RRIRIRPPRLPRPRPRPTCQPRP,-0.215
21,RRIRHRPPRLPRPRPRPAVDPRP,0.0722
22,RRIRFRPPRLPRPRPRPWICPRP,-1.05
23,RRIRRRPPRLPRPRPRPVDNPRP,0.0838
24,RRIRARPPRLPRPRPRPWALPRP,0.172
25,RRIRKRPPRLPRPRPRPFKDPRP,-0.0776

row,Sequence,shrunken log2 fold change
1,RRIRNRPPRLPRPRPRPRFHPRP,0.0377
2,RRIRMRPPRLPRPRPRPRNIPRP,0.0054
3,RRIRYRPPRLPRPRPRPWVRPRP,-0.108
4,RRIRKRPPRLPRPRPRPPPCPRP,0.585
5,RRIRDRPPRLPRPRPRPLHPPRP,0.286
6,RRIRGRPPRLPRPRPRPCQEPRP,0.0738
7,RRIRRRPPRLPRPRPRPAFPPRP,0.356
8,RRIRGRPPRLPRPRPRPYRYPRP,0.322
9,RRIRCRPPRLPRPRPRPPQMPRP,0.0913
10,RRIRGRPPRLPRPRPRPGCKPRP,0.441
11,RRIRIRPPRLPRPRPRPDADPRP,0.194
12,RRIRVRPPRLPRPRPRPVLHPRP,-0.243
13,RRIRERPPRLPRPRPRPGRRPRP,0.0607
14,RRIRTRPPRLPRPRPRPEQHPRP,0.0492
15,RRIRPRPPRLPRPRPRPSVVPRP,-0.162
16,RRIRPRPPRLPRPRPRPKIWPRP,0.407
17,RRIRVRPPRLPRPRPRPCMKPRP,-0.104
18,RRIRWRPPRLPRPRPRPDKSPRP,-0.135
19,RRIRTRPPRLPRPRPRPQPTPRP,0.197
20,RRIRRRPPRLPRPRPRPGLVPRP,0.279
21,RRIRDRPPRLPRPRPRPKDNPRP,-0.116
22,RRIRQRPPRLPRPRPRPVMEPRP,-0.028
23,RRIRFRPPRLPRPRPRPHNAPRP,-0.54
24,RRIRWRPPRLPRPRPRPELVPRP,0.605
25,RRIRMRPPRLPRPRPRPVIPPRP,-0.259

row,Sequence,shrunken log2 fold change
1,RRIRKRPPRLPRPRPRPCDPPRP,0.121
2,RRIRRRPPRLPRPRPRPDANPRP,0.555
3,RRIRVRPPRLPRPRPRPYHCPRP,-0.157
4,RRIRKRPPRLPRPRPRPYIRPRP,-0.018
5,RRIRSRPPRLPRPRPRPVEDPRP,-0.0519
6,RRIRHRPPRLPRPRPRPYGAPRP,-0.48
7,RRIRARPPRLPRPRPRPNKMPRP,-0.177
8,RRIRQRPPRLPRPRPRPDEFPRP,-0.0132
9,RRIRPRPPRLPRPRPRPLMPPRP,-0.188
10,RRIRQRPPRLPRPRPRPGPPPRP,0.462
11,RRIRHRPPRLPRPRPRPYIRPRP,-0.0464
12,RRIRPRPPRLPRPRPRPRAWPRP,0.0147
13,RRIRPRPPRLPRPRPRPTILPRP,-0.104
14,RRIRCRPPRLPRPRPRPDYKPRP,-0.375
15,RRIRRRPPRLPRPRPRPSCIPRP,-0.596
16,RRIRNRPPRLPRPRPRPSDYPRP,0.075
17,RRIRFRPPRLPRPRPRPDDHPRP,-0.139
18,RRIRSRPPRLPRPRPRPDWQPRP,-0.162
19,RRIRVRPPRLPRPRPRPGKYPRP,-0.493
20,RRIRFRPPRLPRPRPRPRGMPRP,0.2
21,RRIRDRPPRLPRPRPRPCCCPRP,0.714
22,RRIRGRPPRLPRPRPRPMNTPRP,0.632
23,RRIRHRPPRLPRPRPRPCKSPRP,0.0139
24,RRIRERPPRLPRPRPRPFFIPRP,-0.354
25,RRIRIRPPRLPRPRPRPMMLPRP,-0.0496
